From patent US20240166745A1 (Eli Lilly, published 2024)

Legend:
[1] = target: T1, cell membrane-expressed human LAG-3 (human, UniProt P18627 23-525); experiment: flow cytometry, labeled antibody on anti-CD3 activated human PBMC, CD8 T cells, percent of cells bound (mean +/- SEM, n=3)
T1 construct: also called hLAG-3; CD223
T1 sequence: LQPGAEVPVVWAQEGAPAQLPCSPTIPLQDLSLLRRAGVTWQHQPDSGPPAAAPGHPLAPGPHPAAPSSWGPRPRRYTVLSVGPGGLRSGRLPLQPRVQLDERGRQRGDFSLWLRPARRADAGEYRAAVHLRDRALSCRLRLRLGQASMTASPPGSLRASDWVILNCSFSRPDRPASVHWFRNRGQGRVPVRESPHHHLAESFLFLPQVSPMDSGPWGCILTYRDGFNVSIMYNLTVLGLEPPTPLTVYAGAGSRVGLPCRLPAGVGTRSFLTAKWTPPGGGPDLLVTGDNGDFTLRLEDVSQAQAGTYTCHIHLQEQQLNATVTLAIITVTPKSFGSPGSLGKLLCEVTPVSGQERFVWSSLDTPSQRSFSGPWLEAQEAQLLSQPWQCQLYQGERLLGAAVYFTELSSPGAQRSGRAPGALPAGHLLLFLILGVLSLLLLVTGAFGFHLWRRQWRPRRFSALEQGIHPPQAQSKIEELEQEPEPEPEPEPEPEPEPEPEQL
Method: (§1) Cells were incubated with 10-12 point, 3-fold serial dilutions of the respective labeled antibody (Invitrogen #S20026, Invitrogen #C20029), starting at 30 ug/mL, in PBS+2% FCS for 30 minutes at 4° C. and containing the following: CD4 eBioscience #12-0047-42 or Biolegend #344634; CD8 eBioscience #25-0088-42; CD3 eBioscience 56-0038-82 for human cells and BD #557917 for cyno cells; CD33 eBioscience 45-0338-42 for human cells; Live/Dead eBioscience #65-0865-18. After washing thoroughly, cells were processed on a BD Fortessa or Fortessa X20 cytometer, and data were analyzed with Flowjo software (BD Biosciences). Percent of cells bound by the respective antibody is quantified and graphed with Prism (Graphpad, San Diego, CA).

[2] = target: T2, cell surface cynomolgus monkey LAG-3 (cynomolgus); experiment: flow cytometry, labeled antibody on anti-CD3 activated cynomolgus PBMC, CD8 T cells, percent of cells bound (mean +/- SEM, n=3)
T2 construct: whole, on cells
Method: as §1

[3] = target: T1, cell membrane-expressed human LAG-3; experiment: flow cytometry, labeled antibody on anti-CD3 activated human PBMC, CD4 T cells, percent of cells bound (mean +/- SEM, n=3)
Method: as §1

Cynomolgus LAG-3-ECD = target: T3, Cynomolgus LAG-3-ECD (cynomolgus); experiment: SPR (Biacore T200), antibody captured on PrismA chip, ECD as analyte, 37° C.
T3 construct: as printed it starts with the N-terminal leader (MWEAQ...) and ends with a His tag; also called Cynomolgus LAG-3 ECD-His
T3 chain: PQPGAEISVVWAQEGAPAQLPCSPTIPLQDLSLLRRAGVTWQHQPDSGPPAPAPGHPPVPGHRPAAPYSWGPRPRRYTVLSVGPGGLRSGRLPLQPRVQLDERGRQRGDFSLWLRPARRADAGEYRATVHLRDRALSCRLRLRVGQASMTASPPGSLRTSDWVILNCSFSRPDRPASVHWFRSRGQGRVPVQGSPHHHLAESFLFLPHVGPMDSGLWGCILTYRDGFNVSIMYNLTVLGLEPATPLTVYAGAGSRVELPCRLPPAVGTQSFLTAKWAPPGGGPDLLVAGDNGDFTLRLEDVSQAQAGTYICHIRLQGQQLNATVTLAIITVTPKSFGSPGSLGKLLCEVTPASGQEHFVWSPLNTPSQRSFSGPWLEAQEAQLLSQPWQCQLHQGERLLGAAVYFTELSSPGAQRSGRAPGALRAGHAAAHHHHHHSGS
Method: (§2) A Biacore® T200 (Cytiva, Marlborough, MA) was used to measure the binding kinetics and affinities of the LAG-3 antibody to the LAG-3 soluble extracellular domain (ECD) and the bispecific antibody to soluble LAG-3-ECD and PD-1-ECD (human: Sino Biologicals, Cat #10377-H08H; cynomolgus: Sino Biologicals, Cat #90311-C08H) by surface plasmon resonance. Samples were diluted in HBS-EP+ (10 mM Hepes, 150 mM NaCl, 3 mM EDTA, 0.05% Tween-20, pH 7.6) (Teknova Cat #H8022) with 5 g/L of BSA (Jackson ImmunoResearch Cat #001-000-161) running buffer. PrismA Series S Sensor chip (Cat #29650263) is purchased from Cytiva.
(§3) Binding was evaluated using multi-cycle kinetics by an antibody capture method. Each cycle was performed at either 37° C. or 25° C. at a flow rate of 10 μL/min for antibody capture to the PrismA chip and 100 μL/min for analyte association (with 120 sec contact time) and dissociation (900 sec). Each cycle consisted of the following steps: injection of bispecific antibody at 1 μg/mL in HBS-EP+ targeting Rmax values of 125 RU (LAG-3 arm), 294 RU (PD-1 arm) and 63 RU (LAG-3 antibody) on flow cell, injection of analyte in HBS-EP+(concentration range of 62.5 nM to 0.25 nM by two-fold serial dilution for both human PD-1-ECD-His (SEQ ID NO: 40) and human LAG-3-His (SEQ ID NO: 42) followed by 900-second dissociation phase, and regeneration using 10 μL of 10 mM glycine hydrochloride, pH 1.5 over a 60-second contact time utilizing a 10 μL/min flow rate. All analyte concentrations were determined utilizing monomeric molecular weight (MW) values. Association rates (kₒₙ) and dissociation rates (koff) for LAG-3-ECD and PD-1-ECD were evaluated using double referencing by flow-cell one reference subtraction in addition to 0 nM blank subtraction and fit to “1:1 (Langmuir) binding” model in the BIAevaluation software version 4.1. The dissociation constant (KD) was calculated from the binding kinetics according to the relationship KD=Koff/Kₒₙ. Stoichiometry=[RUₘₐₓ/RUcaptured]/[MWanalyte/MWantibody] where MWAntibodyA is 150 kDa. Values are reported as mean±standard deviation.

Human LAG-3 ECD-His = target: T4, Human LAG-3 ECD-His (human, UniProt P18627 23-449); experiment: as above
T4 construct: Soluble analyte in SPR; the entry includes linker and His tag; also called human LAG-3-His
T4 sequence: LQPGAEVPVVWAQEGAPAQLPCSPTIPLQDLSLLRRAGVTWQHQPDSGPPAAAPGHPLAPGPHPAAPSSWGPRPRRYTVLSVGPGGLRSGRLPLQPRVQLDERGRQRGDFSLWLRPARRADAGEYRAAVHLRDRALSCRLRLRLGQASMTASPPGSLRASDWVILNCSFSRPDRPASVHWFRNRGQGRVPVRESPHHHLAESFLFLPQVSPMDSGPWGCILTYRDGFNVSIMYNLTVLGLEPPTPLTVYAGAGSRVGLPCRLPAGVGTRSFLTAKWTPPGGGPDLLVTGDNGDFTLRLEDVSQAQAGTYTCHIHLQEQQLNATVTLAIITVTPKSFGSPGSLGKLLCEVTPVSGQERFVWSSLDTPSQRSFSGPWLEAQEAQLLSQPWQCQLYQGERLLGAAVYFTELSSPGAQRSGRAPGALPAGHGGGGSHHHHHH
Method: as §2, §3

[4] = target: T2, cell surface cynomolgus monkey LAG-3; experiment: flow cytometry, labeled antibody on anti-CD3 activated cynomolgus PBMC, CD4 T cells, percent of cells bound (mean +/- SEM, n=3)
Method: as §1

EC50 [1]: 3.4 ng/mL
EC50 [2]: 6.5 ng/mL
EC50 [3]: 8.7 ng/mL
Kd (Cynomolgus LAG-3-ECD): 0.038 nM
koff (Cynomolgus LAG-3-ECD): 0.0042 s⁻¹
kon (Cynomolgus LAG-3-ECD): 1.1e+08 M⁻¹ s⁻¹
Kd (Human LAG-3 ECD-His): 1 nM
koff (Human LAG-3 ECD-His): 0.16 s⁻¹
kon (Human LAG-3 ECD-His): 1.5e+08 M⁻¹ s⁻¹
EC50 [4]: 10.5 ng/mL
B1: Antibody E (antibody, V domains shown)
VH: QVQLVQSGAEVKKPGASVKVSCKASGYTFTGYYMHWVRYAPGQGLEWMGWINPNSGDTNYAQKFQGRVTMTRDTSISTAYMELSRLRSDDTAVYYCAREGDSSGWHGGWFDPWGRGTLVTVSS
VL: DIVMTQTPLSLPVTPGEPASISCRSSQSLLDSAEGSTYLDWFLRKPGDSPQLLIYTLSYRASGVPDRFSGSGSGTDFTLKISRVEAEDVGVYYCMQRVEFPYTFGQGTKVEIKR
notes: Monospecific LAG-3 antibody; also called human LAG-3 Antibody E
